{"source": "patent US5993823", "key": {"[1]": {"target": "SIV GAG 176-195 peptide on autologous macaque B-LCL (SIV; rhesus macaque (Macaca mulatta))"}, "[2]": {"target": "SIV GAG 165-185 peptide on autologous macaque B-LCL (SIV; rhesus macaque (Macaca mulatta))"}, "[3]": {"target": "SIV GAG 165-195 peptide (LP6) on autologous macaque B-LCL (SIV; rhesus macaque (Macaca mulatta))"}, "[4]": {"target": "SIV NEF 155-178 peptide (LP3) on autologous macaque B-LCL (SIV; rhesus macaque (Macaca mulatta))"}, "[5]": {"target": "SIV GAG 246-282 peptide (LP7) on autologous macaque B-LCL (SIV; rhesus macaque (Macaca mulatta))"}, "[6]": {"target": "SIV NEF 164-178 peptide on autologous macaque B-LCL (SIV; rhesus macaque (Macaca mulatta))"}, "[7]": {"target": "SIV NEF 160-176 peptide on autologous macaque B-LCL (SIV; rhesus macaque (Macaca mulatta))"}, "[8]": {"target": "SIV NEF 155-169 peptide on autologous macaque B-LCL (SIV; rhesus macaque (Macaca mulatta))"}, "[9]": {"target": "SIV NEF 125-138 peptide on autologous macaque B-LCL (SIV; rhesus macaque (Macaca mulatta))"}, "[10]": {"target": "SIV NEF 155-178 peptide (LP3) on autologous macaque B-LCL (SIV; rhesus macaque (Macaca mulatta))", "remark": "listed apart in the source"}, "[11]": {"target": "SIV NEF 125-147 peptide (LP2) on autologous macaque B-LCL (SIV; rhesus macaque (Macaca mulatta))"}, "[12]": {"target": "SIV NEF 133-147 peptide on autologous macaque B-LCL (SIV; rhesus macaque (Macaca mulatta))"}, "[13]": {"target": "SIV NEF 201-225 peptide (LP4) on autologous macaque B-LCL (SIV; rhesus macaque (Macaca mulatta))"}, "[14]": {"target": "SIV NEF 211-225 peptide on autologous macaque B-LCL (SIV; rhesus macaque (Macaca mulatta))"}, "[15]": {"target": "SIV NEF 201-215 peptide on autologous macaque B-LCL (SIV; rhesus macaque (Macaca mulatta))"}}, "data": [{"substance": "CTL line from PBMC of immunized macaque RS4, restimulated with the mixture of the 7 peptides (cells without a defined receptor)", "values": [{"measurement": "specific 51Cr release (CRT), E/T 60:1 and 20:1 (percent specific chromium release)", "setting": "[1]", "result": 35}, {"measurement": "specific 51Cr release (CRT), E/T 60:1 and 20:1 (percent specific chromium release)", "setting": "[2]", "result": 8}, {"measurement": "specific 51Cr release (CRT), E/T 60:1 and 20:1 (percent specific chromium release)", "setting": "[3]", "result": 57}]}, {"substance": "CTL line from PBMC of immunized macaque RS6, restimulated with the mixture of the 7 peptides (cells without a defined receptor)", "values": [{"measurement": "specific 51Cr release (CRT), E/T 70:1 (% specific lysis)", "setting": "[4]", "result": 40}]}, {"substance": "CTL line from PBMC of immunized macaque RS7, restimulated with the mixture of the 7 peptides (cells without a defined receptor)", "values": [{"measurement": "specific 51Cr release (CRT), E/T 70:1 (% specific lysis)", "setting": "[5]", "result": 59}]}, {"substance": "CTL line from PBMC of immunized macaque RS17, restimulated with the mixture of the 7 peptides (cells without a defined receptor)", "values": [{"measurement": "specific 51Cr release (CRT), E/T 60:1 and 20:1 (percent specific chromium release)", "setting": "[6]", "result": 46}, {"measurement": "specific 51Cr release (CRT), E/T 60:1 and 20:1 (percent specific chromium release)", "setting": "[7]", "result": 0}, {"measurement": "specific 51Cr release (CRT), E/T 60:1 and 20:1 (percent specific chromium release)", "setting": "[8]", "result": 0}, {"measurement": "specific 51Cr release (CRT), E/T 70:1 (% specific lysis)", "setting": "[4]", "result": 44}]}, {"substance": "CTL line from PBMC of immunized macaque RS20, restimulated with the mixture of the 7 peptides (cells without a defined receptor)", "values": [{"measurement": "specific 51Cr release (CRT), E/T 60:1 and 20:1 (percent specific chromium release)", "setting": "[9]", "result": 85}, {"measurement": "specific 51Cr release (CRT) (percent specific chromium release)", "setting": "[10]", "result": 87}, {"measurement": "specific 51Cr release (CRT) (percent specific chromium release)", "setting": "[6]", "result": 49}, {"measurement": "specific 51Cr release (CRT) (percent specific chromium release)", "setting": "[7]", "result": 6}, {"measurement": "specific 51Cr release (CRT) (percent specific chromium release)", "setting": "[8]", "result": 14}, {"measurement": "specific 51Cr release (CRT), E/T 60:1 and 20:1 (percent specific chromium release)", "setting": "[11]", "result": 72}, {"measurement": "specific 51Cr release (CRT), E/T 60:1 and 20:1 (percent specific chromium release)", "setting": "[12]", "result": 4}]}, {"substance": "CTL line from PBMC of immunized macaque RS21, restimulated with the mixture of the 7 peptides (cells without a defined receptor)", "values": [{"measurement": "specific 51Cr release (CRT), E/T 70:1 (% specific lysis)", "setting": "[13]", "result": 35}]}, {"substance": "CTL line from PBMC of immunized macaque RS23, restimulated with the mixture of the 7 peptides (cells without a defined receptor)", "values": [{"measurement": "specific 51Cr release (CRT), E/T 60:1 and 20:1 (percent specific chromium release)", "setting": "[14]", "result": 0}, {"measurement": "specific 51Cr release (CRT), E/T 60:1 and 20:1 (percent specific chromium release)", "setting": "[15]", "result": 18}, {"measurement": "specific 51Cr release (CRT), E/T 70:1 (% specific lysis)", "setting": "[13]", "result": 42}]}]}
